Results on 3 molecules are retold here after PMC5714956, “Insight into the molecular recognition mechanism of the coactivator NCoA1 by STAT6” (Scientific Reports, 2017).

The target in test [1] is NCoA1 (Homo sapiens) (UniProt Q15788). Description: competitive fluorescence polarization. As to conditions: cited from earlier work. On the technique in general: In fluorescence polarisation assays a small probe gives low polarisation when free and higher when bound to something large.
Test [2] has the same target. The experiment in a line: fluorescence polarization. As to conditions: cited from earlier work.
In test [3] the target is T1, NCoA1 PAS-B domain 257-385 (nuclear coactivator 1) (UniProt Q15788 257-385).
T1 construct: Used unlabeled or 15N / 15N-13C labeled in the NMR samples
T1 sequence (looked up): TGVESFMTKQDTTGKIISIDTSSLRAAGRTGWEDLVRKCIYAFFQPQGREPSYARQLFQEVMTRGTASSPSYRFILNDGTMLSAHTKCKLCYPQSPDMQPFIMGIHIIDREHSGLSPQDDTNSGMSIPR
The experiment in a line: crystal structure; X-ray structure of the NCoA-1 PAS-B domain in complex with the STAT6 783-814 peptide (PDB 5NWX); peptide added in 1.5 fold molar excess, complex purified by gel filtration (Superdex 75). As to conditions: both partners purified. For orientation: Size exclusion chromatography separates by hydrodynamic size, large species first.

Sequence of NCoA1 (Homo sapiens) (Q15788 2-1441): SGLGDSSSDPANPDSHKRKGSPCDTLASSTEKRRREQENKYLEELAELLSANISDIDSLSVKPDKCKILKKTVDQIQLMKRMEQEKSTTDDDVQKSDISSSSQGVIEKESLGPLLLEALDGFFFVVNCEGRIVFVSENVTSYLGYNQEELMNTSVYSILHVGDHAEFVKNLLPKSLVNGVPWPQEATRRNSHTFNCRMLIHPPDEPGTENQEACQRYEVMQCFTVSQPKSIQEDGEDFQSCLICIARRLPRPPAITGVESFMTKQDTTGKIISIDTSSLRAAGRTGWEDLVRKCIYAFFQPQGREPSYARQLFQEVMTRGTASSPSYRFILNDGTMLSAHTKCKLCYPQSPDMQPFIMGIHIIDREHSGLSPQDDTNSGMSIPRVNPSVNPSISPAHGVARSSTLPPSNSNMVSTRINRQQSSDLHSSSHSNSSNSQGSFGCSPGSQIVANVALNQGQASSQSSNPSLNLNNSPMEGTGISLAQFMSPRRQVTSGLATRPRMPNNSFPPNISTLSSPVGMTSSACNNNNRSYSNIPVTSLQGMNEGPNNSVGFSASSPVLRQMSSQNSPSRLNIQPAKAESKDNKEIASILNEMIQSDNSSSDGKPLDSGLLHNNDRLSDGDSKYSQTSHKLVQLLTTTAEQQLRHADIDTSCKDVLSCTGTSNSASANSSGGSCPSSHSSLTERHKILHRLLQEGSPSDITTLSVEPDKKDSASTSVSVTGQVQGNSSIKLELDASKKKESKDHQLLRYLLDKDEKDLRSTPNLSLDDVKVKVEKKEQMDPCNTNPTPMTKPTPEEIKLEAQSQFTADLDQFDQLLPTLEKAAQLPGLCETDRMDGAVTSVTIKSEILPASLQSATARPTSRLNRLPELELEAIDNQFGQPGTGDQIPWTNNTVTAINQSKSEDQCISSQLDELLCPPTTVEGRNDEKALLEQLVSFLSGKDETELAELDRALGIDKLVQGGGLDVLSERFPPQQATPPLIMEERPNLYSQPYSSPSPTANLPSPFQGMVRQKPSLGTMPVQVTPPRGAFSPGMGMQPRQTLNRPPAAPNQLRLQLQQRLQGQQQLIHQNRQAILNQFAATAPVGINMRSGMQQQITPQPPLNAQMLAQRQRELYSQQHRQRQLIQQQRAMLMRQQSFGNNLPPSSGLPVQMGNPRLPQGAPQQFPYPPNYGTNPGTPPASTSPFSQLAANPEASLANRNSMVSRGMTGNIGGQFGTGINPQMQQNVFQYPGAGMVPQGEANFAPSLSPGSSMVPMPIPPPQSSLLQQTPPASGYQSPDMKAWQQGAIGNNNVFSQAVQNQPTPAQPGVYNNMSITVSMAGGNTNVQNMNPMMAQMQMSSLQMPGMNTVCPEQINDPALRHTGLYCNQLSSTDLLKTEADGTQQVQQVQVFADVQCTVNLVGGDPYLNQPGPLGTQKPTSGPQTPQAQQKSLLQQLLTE

With STAT6 794-814 (from UniProt P42226), the inhibitory constant (Ki) with NCoA1 (Homo sapiens) [1] was 260 nM. In addition, the Kd with NCoA1 (Homo sapiens) [2] is 320 nM. Take STAT6 783-814 (from UniProt P42226): the inhibitory constant (Ki) in the test with NCoA1 (Homo sapiens) [1] was 40 nM. For the same molecule, the Kd with NCoA1 (Homo sapiens) [2] is 40 nM.

B1: STAT6 peptide 783-814 (fragment of the STAT6 transactivation domain with the LXXLL motif) (peptide, UniProt P42226 783-814, looked up)
chain: GTWIGEDIFPPLLPPTEQDLTKLLLEGQGESG
notes: The His7-tag probably left with the Z-tag (the Z-tag was removed on Ni-NTA resin after TEV cleavage); Used unlabeled or 15N / 15N-13C labeled in the NMR samples; source: produced recombinantly, purified (TEV cleavage, Ni-NTA, reversed phase HPLC); not shown: Z-tag, N-terminal, cleaved
As for B1, the binding result in test [3] is reported as “binds”.

By Ki is commonly meant the dissociation constant of the complex between target and ligand, obtained from inhibition or displacement. In general, Kd refers to a measure of binding affinity in units of concentration.
